Experimental data taken from US20110230416A1.

Experiments:
[1] = biological target: hLDLR of non-genetically modified human cells (human fibroblasts, HUVEC) (human) (UniProt P01130); assay: FACS on HUVEC, competition; displaced: bacterial viruses expressing SEQ ID NO: 11
[2] = biological target: hLDLR of non-genetically modified human cells (human fibroblasts, HUVEC) (human) (UniProt P01130); assay: FACS on HUVEC, competition; displaced: bacterial viruses expressing SEQ ID NO: 21

Sequence of hLDLR of non-genetically modified human cells (human fibroblasts, HUVEC) (human) (P01130 22-860): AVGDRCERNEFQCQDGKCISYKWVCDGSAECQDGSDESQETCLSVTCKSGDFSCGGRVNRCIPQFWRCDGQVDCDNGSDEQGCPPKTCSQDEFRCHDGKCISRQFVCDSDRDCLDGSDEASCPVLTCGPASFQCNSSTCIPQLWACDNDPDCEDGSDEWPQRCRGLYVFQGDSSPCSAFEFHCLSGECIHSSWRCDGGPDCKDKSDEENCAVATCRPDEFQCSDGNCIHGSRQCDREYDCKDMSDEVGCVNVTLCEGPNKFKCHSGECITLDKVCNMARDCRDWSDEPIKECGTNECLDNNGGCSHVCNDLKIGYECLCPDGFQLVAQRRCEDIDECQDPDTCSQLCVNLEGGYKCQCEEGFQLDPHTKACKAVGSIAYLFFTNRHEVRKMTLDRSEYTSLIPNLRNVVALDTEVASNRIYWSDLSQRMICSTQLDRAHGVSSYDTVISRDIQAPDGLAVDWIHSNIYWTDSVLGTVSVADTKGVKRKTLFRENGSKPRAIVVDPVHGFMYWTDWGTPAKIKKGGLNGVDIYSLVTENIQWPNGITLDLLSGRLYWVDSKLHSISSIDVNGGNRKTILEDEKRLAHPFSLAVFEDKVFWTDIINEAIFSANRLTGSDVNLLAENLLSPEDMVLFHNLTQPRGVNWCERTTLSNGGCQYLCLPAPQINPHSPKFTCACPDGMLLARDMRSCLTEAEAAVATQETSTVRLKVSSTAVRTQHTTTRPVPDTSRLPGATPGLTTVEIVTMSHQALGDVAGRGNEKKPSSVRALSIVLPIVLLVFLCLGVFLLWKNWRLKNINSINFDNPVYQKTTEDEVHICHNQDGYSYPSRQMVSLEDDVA

Substance: LDL, natural ligand of hLDLR
- loss of signal in Q2 on adding LDL [1]: 17%
- loss of signal in Q2 on adding LDL [2]: 85%
